Legend:
Assay in all cases: purified protein, by the assay type
[1] = substrate: C=C(C)[C@H]1CC=C(C)C(=O)C1
[2] = substrate: CC1=CCCC1=O
[3] = substrate: CC1=CC(=O)CC(C)(C)C1=O
[4] = substrate: CC1=CC(=O)[C@H]2C[C@@H]1C2(C)C
[5] = substrate: COC(=O)C1=CCCCC1
[6] = substrate: O=[N+]([O-])C1=CCCCC1
[7] = substrate: CC1=CC(=O)CC1

B1: MSMEG_2027 (Mycolicibacterium smegmatis MC2 155) (protein)
chain: MTDAELSPTDWVREQTERILEQGTTDGVHVLDRPIVLFTTTGAKSGKKRYVPLMRVEENGKYAMVASKGGDPKHPSWYFNVKANPTVSVQDGDKVLPDRTARELEGEEREHWWKLAVEAYPPYAEYQTKTDRLIPVFIVE
Km [1]: 3099 ± 916.4 µM
kcat [1]: 0.12 ± 0.0114 s⁻¹
kcat/Km [1]: 38.7 ± 8.62 M⁻¹ s⁻¹
Km [2]: 1514 ± 111 µM
kcat [2]: 0.783 ± 0.0157 s⁻¹
kcat/Km [2]: 517 ± 30.8 M⁻¹ s⁻¹
Km [3]: 4550 ± 360.6 µM
kcat [3]: 0.459 ± 0.013 s⁻¹
kcat/Km [3]: 101 ± 5.7 M⁻¹ s⁻¹
Km [4]: 2583 ± 667.2 µM
kcat [4]: 0.048 ± 0.0049 s⁻¹
kcat/Km [4]: 18.6 ± 3.22 M⁻¹ s⁻¹

B2: MSMEG_2850 (Mycolicibacterium smegmatis MC2 155) (protein)
chain: MTEAIDWDQMNNQVIKEFRETGGKAGGLFEGSPLVLVHHTGAKSGKQRIAPLVPLLDGDRIYIFGSKGGADSHPDWYHNLVANPDTVVELGTETFPVKARVLTGAERDEIYAKQVAVAPQFGDYQRKTTRVIPVVELQRV
Km [5]: 4355 ± 312.6 µM
kcat [5]: 0.279 ± 0.0071 s⁻¹
kcat/Km [5]: 64.1 ± 3.29 M⁻¹ s⁻¹
Km [6]: 1739 ± 136.9 µM
kcat [6]: 1.07 ± 0.0295 s⁻¹
kcat/Km [6]: 617 ± 35 M⁻¹ s⁻¹
Km [7]: 862 ± 508 µM
kcat [7]: 0.018 ± 0.0026 s⁻¹
kcat/Km [7]: 21 ± 10.5 M⁻¹ s⁻¹
